HiLyteFluor 488 = N-terminal fluorophore; QXL 520 = dark quencher
What was measured:
[1] = target: AMUC_1438 CAT construct (residues 41-427) (Akkermansia muciniphila) (UniProt B2UKY7)
[2] = target: AMUC_1438 FL construct (Akkermansia muciniphila) (UniProt B2UKY7)

KM of hydrolysis of the IgA1FRET O-glycopeptide (FRET dequenching, steady-state kinetics, Michaelis-Menten fit; 1 μM enzyme, 0 to 1000 μM substrate, 20 mM Tris-HCl pH 7.0, 100 μM zinc chloride) [1]: 300 μM
KM of hydrolysis of the IgA1FRET O-glycopeptide (FRET dequenching, steady-state kinetics, Michaelis-Menten fit; 1 μM enzyme, 0 to 1000 μM substrate, 20 mM Tris-HCl pH 7.0, 100 μM zinc chloride) [2]: 122 μM
Binder: {HiLyteFluor 488}-TPSPSTPPTK-{QXL 520} (not fully specified (residue 5); printed as TPSP**S**TPPTK) [IgA1FRET, custom FRET O-glycopeptide substrate based on the IgA1 hinge region]

— paper PMC9513282
